Patent US7897569B2, “Use of HMGB fragments as anti-inflammatory agents” (The Feinstein Institute for Medical Research, priority 2001, dated 2011)
Marks after values point to notes of the source that are not given here.

How the values were obtained:
RAW 264.7 cells [1] = assay: IL-1β release from RAW 264.7 cells (ELISA); assay type: cell-based, murine; settings: B box 1 μg/ml or 10 μg/ml, 8 hours
Description: To further examine the effect of HMGB1 B box on cytokine production, varying amounts of HMGB1 B box were evaluated for the effects on TNF, IL-1 B, and IL-6 production in murine macrophage-like RAW 264.7 cells. Conditioned media were harvested and measured for TNF, IL-1β and IL-6 levels. TNF levels were measured as described herein, and IL-1β and IL-6 levels were measured using the mouse IL-1β and IL-6 enzyme-linked immunosorbent assay (ELISA) kits (R&D System Inc., Minneapolis, Minn.) and N>5 for all experiments.

[2] = system: D-galactosamine-sensitized Balb/c mice; assay: Toxicity in D-galactosamine-sensitized Balb/c mice (survival); assay type: in vivo
Description: The D-galactosamine-sensitized model has been described previously (Galanos et al., Proc Natl. Acad. Sci. USA 76: 5939-5943, 1979; and Lehmann et al., J. Exp. Med. 165: 657-663, 1997). Mice were injected intraperitoneally with 20 mg D-galactosamine-HCL (Sigma)/mouse (in 200 μl PBS) and 0.1 or 1 mg of either HMGB1 B box or vector protein (in 200 μl PBS). Mortality was recorded daily for up to 72 hours after injection; survivors were followed for 2 weeks, and no later deaths from B box toxicity were observed.
To investigate whether the HMGB1 B box has cytokine activity in vivo, we administered HMGB1 B box protein to unanesthetized Balb/c mice sensitized with D-galactosamine (D-gal), a model that is widely used to study cytokine toxicity (Galanos et al., supra). Briefly, mice (20-25 gram, male, Harlan Sprague-Dawley, Indianapolis, Ind.) were intraperitoneally injected with D-gal (20 mg) (Sigma) and B box (0.1 mg/ml/mouse or 1 mg/ml/mouse) or GST tag (vector; 0.1 mg/ml/mouse or 1 mg/ml/mouse), as indicated in Table 1. Survival of the mice was monitored up to 7 days to ensure no late death occurred.

C3H/HeJ mice = assay: Lethality and histology in C3H/HeJ mice; assay type: in vivo
RAW 264.7 cells [3] = assay: 125I-HMGB1 cell surface binding to RAW 264.7 cells; design: species or system murine; settings: 4° C.
Description: Purified HMGB1 protein (10 μg) was radiolabeled with 0.2 mCi of carrier-free ^125I (NEN Life Science products Inc., Boston, Mass.) using Iodo-beads (Pierce, Rockford, Ill.) according to the manufacturer's instructions. ^125I-HMGB1 protein was separated from un-reacted ^125I by gel chromatography columns (P6 Micro Bio-Spin Chromatography Columns, Bio-Rad Laboratories, Hercules, Calif.) previously equilibrated with 300 mM sodium chloride, 17.5 mM sodium citrate, pH 7.0 and 0.1% bovine serum albumin (BSA). The specific activity of the eluted HMGB1 was about 2.8×10^6 cpm/μg protein. […] The radioactivity in the lysate was then measured using a gamma counter. Specific binding was determined as total binding minus the radioactivity obtained in the presence of an excess amount of unlabeled HMGB1 or A box proteins.
To determine whether the HMGB1 A box acts as an antagonist by displacing HMGB1 binding, ^125I-labeled-HMGB1 was added to macrophage cultures and binding was measured at 4° C. after 2 hours. […] The specificity of binding was assessed as described in Example 1.
In addition, ^125I-HMG-1 binding was measured in RAW 264.7 cells plated on 24-well dishes and incubated with ^125I HMGB1 alone or in the presence of unlabeled HMGB1 or A box. […] The data are expressed as the percent of total counts obtained in the absence of unlabeled HMGB1 proteins (2,382,179 CPM/well).

HMGB1 = assay: A box antagonism of full length HMGB1 TNF release in RAW 264.7 macrophage cultures (ELISA); assay type: cell-based; settings: co-addition with HMGB1, 16 hours, polymyxin B
Description: Antagonism of full length HMGB1 activity by HMGB1 A box or GST tag (vector control) was also determined by measuring TNF release from RAW 264.7 macrophage cultures stimulated by co-addition of A box with full length HMGB1. RAW 264.7 macrophage cells (ATCC) were seeded into 24-well tissue culture plates and used at 90% confluence. The cells were treated with HMGB1, and/or A boxes as indicated for 16 hours in Optimum I medium (Life Technologies, Grand Island, N.Y.) in the presence of polymyxin B (100 units/ml, Sigma, St. Louis, Mo.) and supernatants were collected for TNF measurement (mouse ELISA kit from R&D System Inc, Minneapolis, Minn.). TNF-inducing activity was expressed as a percentage of the activity achieved with HMG-1 alone. FIG. 4B is a histogram of the effect of HMGB1, alone, A box alone, Vector (control) alone, HMGB1 in combination with A box, and HMGB1 in combination with vector.

[4] = C3H/HeJ mice, 8 hours after administration

B1: B box: Human HMGB1 mutant containing only the B box, SEQ ID NO:20 (protein)
chain: FKDPNAPKRLPSAFFLFCSEYRPKIKGEHPGLSIGDVAKKLGEMWNNTAADDKQPYEKKAAKLKEKYEKDIAAY
- IL-1β release (RAW 264.7 cells [1]): increased release of IL-1β
- Alive/total ([2]; 0.1 mg/mouse ip with D-gal 20 mg): 6/6
- Alive/total ([2]; 1 mg/mouse ip with D-gal 20 mg): 2/8*
- lethality ([2]; D-galactosamine-sensitized mice): lethal to D-galactosamine-sensitized mice in a dose-dependent manner
- time to death ([2]; instances in which death occurred): ≤ 12 h
- lethality (C3H/HeJ mice; C3H/HeJ mice (do not respond to endotoxin)): lethal
- histology of heart (C3H/HeJ mice; [4]): evidence of ischemia with loss of cross striation
- histology of liver (C3H/HeJ mice; [4]): mild acute inflammatory responses
- histology of lung and kidney (C3H/HeJ mice; [4]): no abnormal morphologic changes

B2: A box: Human HMGB1 mutant containing only the A box, SEQ ID NO:21 (A box SEQ ID NO:22) (protein)
chain: MGKGDPKKPTGKMSSYAFFVQTCREEHKKKHPDASVNFSEFSKKCSERWKTMSAKEKGKFEDMAKADKARYEREMKTYIPPKGET
- displacement of 125I-HMGB1 binding (RAW 264.7 cells [3]; 5,000 molar excess unlabeled A box, 2 hours): competitive antagonist of HMGB1 activity in vitro
- effect on TNF stimulating activity of full length HMGB1 (HMGB1): significantly attenuated

B3: HMGB1: Recombinant full length human HMGB1, GST fusion system, SEQ ID NO:18; recombinant rat HMGB1 used in some experiments (protein)
chain: MGKGDPKKPTGKMSSYAFFVQTCREEHKKKHPDASVNFSEFSKKCSERWKTMSAKEKGKFEDMAKADKARYEREMKTYIPPKGETKKKFKDPNAPKRLPSAFFLFCSEYRPKIKGEHPGLSIGDVAKKLGEMWNNTAADDKQPYEKKAAKLKEKYEKDIAAYRAKGKPDAAKKGVVKAEKSKKKKEEEEDEEDEEDEEEEEDEEDEEDEEEDDDDE
modifications: GST fusion
notes: recombinant rat HMGB1 used in some experiments
- 125I-HMGB1 binding kinetics (RAW 264.7 cells [3]; RAW 264.7 cells): saturable first order binding kinetics
